Measured values: patent publication US20150165065A1 (AVIDBIOTICS, published 2015)

B1: M13 phage pKK92 displaying MICA α3 domain with loop 1 insert 3.1 (designed binder)
chain: TVPPMVNVTSRGDHPRTQVTCRASGFYPWNITLSWRQDGVSLSHDTQQWGDVLPDGNGTYQTWVATRICQGEEQRFTCYMEHSGNHSTHPVPSGK
notes: also called 1-3.1; not shown: C-terminal portion of M13 gene III protein, fused at codon position 198
B2: M13 phage pKK94 displaying MICA α3 domain with loop 1 insert 3.3 (designed binder)
chain: TVPPMVNVTRVPRGDSDLTVTCRASGFYPWNITLSWRQDGVSLSHDTQQWGDVLPDGNGTYQTWVATRICQGEEQRFTCYMEHSGNHSTHPVPSGK
notes: also called 1-3.3; not shown: C-terminal portion of M13 gene III protein, fused at codon position 198
B3: M13 phage pKK96 displaying MICA α3 domain with loop 1 insert 5.1 (designed binder)
chain: TVPPMVNVTVTRGDTFTQSVTCRASGFYPWNITLSWRQDGVSLSHDTQQWGDVLPDGNGTYQTWVATRICQGEEQRFTCYMEHSGNHSTHPVPSGK
notes: also called 1-5.1; not shown: C-terminal portion of M13 gene III protein, fused at codon position 198
B4: M13 phage pKK98 displaying MICA α3 domain with loop 1 insert 5.3 (designed binder)
chain: TVPPMVNVTHLARGDDLTYVTCRASGFYPWNITLSWRQDGVSLSHDTQQWGDVLPDGNGTYQTWVATRICQGEEQRFTCYMEHSGNHSTHPVPSGK
notes: also called 1-5.3; not shown: C-terminal portion of M13 gene III protein, fused at codon position 198
B5: soluble MICA generated from pKK52 (tight loop 1 insert T-3.1) (designed binder)
chain: HHHHHHEPHSLRYNLTVLSWDGSVQSGFLTEVHLDGQPFLRCDRQKCRAKPQGQWAEDVLGNKTWDRETRDLTGNGKDLRMTLAHIKDQKEGLHSLQEIRVCEIHEDNSTRSSQHFYYDGELFLSQNLETEEWTMPQSSRAQTLAMNVRNFLKEDAMKTKTHYHAMHADCLQELRRYLKSGVVLRRTVPPMVNTSRGDHPRTQCRASGFYPWNITLSWRQDGVSLSHDTQQWGDVLPDGNGTYQTWVATRICQGEEQRFTCYMEHSGNHSTHPVPSGK
notes: From pSW324 (from pKK34: His6, Glu125); secreted by 293T cells; also called 1-T-3.1
B6: soluble MICA generated from pKK55 (tight loop 1 insert T-5.1) (designed binder)
chain: HHHHHHEPHSLRYNLTVLSWDGSVQSGFLTEVHLDGQPFLRCDRQKCRAKPQGQWAEDVLGNKTWDRETRDLTGNGKDLRMTLAHIKDQKEGLHSLQEIRVCEIHEDNSTRSSQHFYYDGELFLSQNLETEEWTMPQSSRAQTLAMNVRNFLKEDAMKTKTHYHAMHADCLQELRRYLKSGVVLRRTVPPMVNVTRGDTFTQSCRASGFYPWNITLSWRQDGVSLSHDTQQWGDVLPDGNGTYQTWVATRICQGEEQRFTCYMEHSGNHSTHPVPSGK
notes: From pSW324 (from pKK34: His6, Glu125); secreted by 293T cells; also called 1-T-5.1
B7: soluble MICA generated from pKK56 (tight loop 1 insert T-5.3) (designed binder)
chain: HHHHHHEPHSLRYNLTVLSWDGSVQSGFLTEVHLDGQPFLRCDRQKCRAKPQGQWAEDVLGNKTWDRETRDLTGNGKDLRMTLAHIKDQKEGLHSLQEIRVCEIHEDNSTRSSQHFYYDGELFLSQNLETEEWTMPQSSRAQTLAMNVRNFLKEDAMKTKTHYHAMHADCLQELRRYLKSGVVLRRTVPPMVNHLARGDDLTYCRASGFYPWNITLSWRQDGVSLSHDTQQWGDVLPDGNGTYQTWVATRICQGEEQRFTCYMEHSGNHSTHPVPSGK
notes: From pSW324 (from pKK34: His6, Glu125); secreted by 293T cells; also called 1-T-5.3
B8: soluble MICA generated from pKK54 (tight loop 1 insert T-3.3) (designed binder)
chain: HHHHHHEPHSLRYNLTVLSWDGSVQSGFLTEVHLDGQPFLRCDRQKCRAKPQGQWAEDVLGNKTWDRETRDLTGNGKDLRMTLAHIKDQKEGLHSLQEIRVCEIHEDNSTRSSQHFYYDGELFLSQNLETEEWTMPQSSRAQTLAMNVRNFLKEDAMKTKTHYHAMHADCLQELRRYLKSGVVLRRTVPPMVNRVPRGDSDLTCRASGFYPWNITLSWRQDGVSLSHDTQQWGDVLPDGNGTYQTWVATRICQGEEQRFTCYMEHSGNHSTHPVPSGK
notes: From pSW324 (from pKK34: His6, Glu125); secreted by 293T cells; also called 1-T-3.3
B9: soluble MICA generated from pKK53 (tight loop 1 insert T-3.5) (designed binder)
chain: HHHHHHEPHSLRYNLTVLSWDGSVQSGFLTEVHLDGQPFLRCDRQKCRAKPQGQWAEDVLGNKTWDRETRDLTGNGKDLRMTLAHIKDQKEGLHSLQEIRVCEIHEDNSTRSSQHFYYDGELFLSQNLETEEWTMPQSSRAQTLAMNVRNFLKEDAMKTKTHYHAMHADCLQELRRYLKSGVVLRRTVPPMVNGSRGDSLIMHCRASGFYPWNITLSWRQDGVSLSHDTQQWGDVLPDGNGTYQTWVATRICQGEEQRFTCYMEHSGNHSTHPVPSGK
notes: From pSW324 (from pKK34: His6, Glu125); secreted by 293T cells; also called 1-T-3.5

How the values were obtained:
[1] = target: T1, integrin αVβ5 (UniProt P06756 31-992; P18084 24-719); test: phage ELISA, coated integrin, anti-M13-HRP
T1 construct: Coated on the ELISA plate
Method: (§1) The phage vectors were independently transformed into NEBαF′tet competent E. coli cells. Phages produced by the transformed cells were tittered and their concentrations adjusted by dilution to 10¹³ per ml. The ability of the soluble MICA molecules in each of the phage preparations was assayed by an ELISA using the intended target proteins, integrin αVβ3 or αVβ5, as capture agents on the ELISA plate. After the respective integrins were adhered to the bottoms of the wells of the ELISA plate, the wells were washed and blocked, as well known in the field. Each sample (100 μl) of phage preparation was added to wells containing αVβ3 or αVβ5, incubated and washed. The phages captured by the integrins were detected by HRP-conjugated antibody to the M13 phage coat developed with Ultra TMB-ELISA substrate and the optical densities read.

[2] = target: T2, integrin αVβ3 (UniProt P06756 31-992; P05106 27-718); test: phage ELISA, coated integrin, anti-M13-HRP
T2 construct: Coated on the ELISA plate
Method: as §1

[3] = target: T1, integrin αVβ5; test: ELISA, coated integrin, anti-MICA-HRP
Method: (§2) The ability of the soluble MICA molecules in each of the concentrated supernatants to bind target molecules was assayed by an ELISA using the intended target proteins, integrin αVβ3 or αVβ5, as capture agents on the ELISA plate. After the respective integrins were adhered to the bottoms of the wells of the ELISA plate, the wells were washed and blocked, as well known in the field. Each sample (100 μl) of soluble MICA produced and secreted by 293T cells was added to wells containing αVβ3 or αVβ5, incubated and washed. The soluble MICA molecules captured by the integrins were detected by HRP-conjugated antibody to human MICA developed with Ultra TMB-ELISA substrate and the optical densities read. The quantity of soluble MICA in each sample was determined by the MICA-specific ELISA. […] The ELISA signal from a non-binding, negative control MICA (generated by pSW273) was subtracted from each integrin binding signal.

[4] = target: T2, integrin αVβ3; test: ELISA, coated integrin, anti-MICA-HRP
Method: as §2

T2 sequence (P06756 31-992, chain 1 of 2): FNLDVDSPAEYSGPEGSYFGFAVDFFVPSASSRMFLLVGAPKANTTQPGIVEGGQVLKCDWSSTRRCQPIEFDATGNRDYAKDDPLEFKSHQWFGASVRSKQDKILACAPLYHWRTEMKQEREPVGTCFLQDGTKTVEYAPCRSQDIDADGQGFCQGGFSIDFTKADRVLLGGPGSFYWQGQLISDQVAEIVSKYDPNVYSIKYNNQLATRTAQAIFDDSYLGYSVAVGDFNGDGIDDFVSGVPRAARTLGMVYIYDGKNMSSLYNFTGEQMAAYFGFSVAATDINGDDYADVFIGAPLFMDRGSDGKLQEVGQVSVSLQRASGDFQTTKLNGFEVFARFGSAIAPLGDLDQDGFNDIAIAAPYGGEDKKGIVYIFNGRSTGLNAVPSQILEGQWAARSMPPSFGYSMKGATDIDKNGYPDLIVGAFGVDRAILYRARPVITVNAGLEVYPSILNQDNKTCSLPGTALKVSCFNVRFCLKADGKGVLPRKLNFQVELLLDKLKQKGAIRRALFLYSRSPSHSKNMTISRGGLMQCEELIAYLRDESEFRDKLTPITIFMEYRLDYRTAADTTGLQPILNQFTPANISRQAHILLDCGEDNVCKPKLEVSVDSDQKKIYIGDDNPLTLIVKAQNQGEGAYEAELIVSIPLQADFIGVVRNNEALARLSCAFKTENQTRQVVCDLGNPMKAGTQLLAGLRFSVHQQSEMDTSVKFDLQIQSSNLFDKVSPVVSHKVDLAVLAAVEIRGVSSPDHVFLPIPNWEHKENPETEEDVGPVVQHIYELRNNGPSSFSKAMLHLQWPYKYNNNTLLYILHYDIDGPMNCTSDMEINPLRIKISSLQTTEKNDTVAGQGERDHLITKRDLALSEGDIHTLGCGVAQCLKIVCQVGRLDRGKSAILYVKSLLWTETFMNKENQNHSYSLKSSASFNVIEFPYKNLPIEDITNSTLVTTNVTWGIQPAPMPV
T2 sequence (P05106 27-718, chain 2 of 2): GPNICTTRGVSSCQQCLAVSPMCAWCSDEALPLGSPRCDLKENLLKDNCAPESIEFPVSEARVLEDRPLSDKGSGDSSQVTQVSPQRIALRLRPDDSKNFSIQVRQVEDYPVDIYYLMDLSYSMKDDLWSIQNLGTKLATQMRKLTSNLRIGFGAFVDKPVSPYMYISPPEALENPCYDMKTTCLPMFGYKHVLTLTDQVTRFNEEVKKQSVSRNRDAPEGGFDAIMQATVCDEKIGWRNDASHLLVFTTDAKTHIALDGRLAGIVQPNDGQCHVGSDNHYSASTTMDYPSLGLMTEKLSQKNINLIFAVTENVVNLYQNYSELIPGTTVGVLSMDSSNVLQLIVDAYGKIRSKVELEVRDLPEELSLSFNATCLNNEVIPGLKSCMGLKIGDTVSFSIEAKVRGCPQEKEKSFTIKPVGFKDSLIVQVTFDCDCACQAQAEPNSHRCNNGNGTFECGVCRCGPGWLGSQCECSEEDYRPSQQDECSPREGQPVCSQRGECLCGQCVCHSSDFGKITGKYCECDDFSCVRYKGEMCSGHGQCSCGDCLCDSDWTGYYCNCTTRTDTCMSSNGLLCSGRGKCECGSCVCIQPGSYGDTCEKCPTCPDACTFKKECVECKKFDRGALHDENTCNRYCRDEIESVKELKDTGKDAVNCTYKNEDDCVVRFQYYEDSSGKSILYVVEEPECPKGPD
T1 sequence (P06756 31-992, chain 1 of 2): as the sequence (P06756 31-992, chain 1 of 2) above
T1 sequence (P18084 24-719, chain 2 of 2): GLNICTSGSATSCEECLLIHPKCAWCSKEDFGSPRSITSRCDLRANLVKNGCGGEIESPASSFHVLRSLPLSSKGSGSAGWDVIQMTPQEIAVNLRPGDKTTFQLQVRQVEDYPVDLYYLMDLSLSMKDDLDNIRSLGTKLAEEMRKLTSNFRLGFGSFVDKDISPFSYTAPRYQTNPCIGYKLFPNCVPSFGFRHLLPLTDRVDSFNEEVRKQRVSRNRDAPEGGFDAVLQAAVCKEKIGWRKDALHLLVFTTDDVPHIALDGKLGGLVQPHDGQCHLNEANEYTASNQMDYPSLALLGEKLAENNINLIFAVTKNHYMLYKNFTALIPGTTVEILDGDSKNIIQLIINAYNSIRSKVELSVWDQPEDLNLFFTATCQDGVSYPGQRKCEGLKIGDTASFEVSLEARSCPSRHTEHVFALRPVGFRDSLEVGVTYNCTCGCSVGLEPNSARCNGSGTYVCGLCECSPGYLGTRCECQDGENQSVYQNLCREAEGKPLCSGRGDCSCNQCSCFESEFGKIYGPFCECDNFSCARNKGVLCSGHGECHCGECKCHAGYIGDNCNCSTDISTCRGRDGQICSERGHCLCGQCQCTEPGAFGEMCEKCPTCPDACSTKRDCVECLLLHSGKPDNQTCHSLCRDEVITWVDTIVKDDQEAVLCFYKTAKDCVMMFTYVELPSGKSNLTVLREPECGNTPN

Row | Binder | αvβ5 signal [1] | αvβ3 signal [2] | αvβ5 signal [3] | αvβ5 signal/ng [3] | αvβ3 signal [4] | αvβ3 signal/ng [4]
1 | B1 | 1.32 OD | 0.858 OD | – | – | – | –
2 | B2 | 2.84 OD | 1.07 OD | – | – | – | –
3 | B3 | 2.42 OD | 1.64 OD | – | – | – | –
4 | B4 | 1.48 OD | 1.22 OD | – | – | – | –
5 | B5 | – | – | 0.485 OD | 12.6 signal/ng MICA | 0.391 OD | 10.1 signal/ng MICA
6 | B6 | – | – | 0.588 OD | 17.4 signal/ng MICA | 0.475 OD | 14 signal/ng MICA
7 | B7 | – | – | 0.528 OD | 18.3 signal/ng MICA | 0.473 OD | 16.4 signal/ng MICA
8 | B8 | – | – | 0.175 OD | 19.3 signal/ng MICA | 0.177 OD | 19.5 signal/ng MICA
9 | B9 | – | – | 0.8 OD | 22.8 signal/ng MICA | 0.659 OD | 18.7 signal/ng MICA
